Assay results from patent publication US8785600B2, “Anti-GCC antibody molecules and related compositions and methods” (Millennium Pharmaceuticals, Inc., priority 2009, dated 2014).

Tests used:
mouse GCC = biological target: T1, mouse GCC (Mus musculus, UniProt Q3UWA6); experiment: Cross-reactivity with GCC orthologs (ELISA); format: binding
T1 sequence (Q3UWA6 20-1072): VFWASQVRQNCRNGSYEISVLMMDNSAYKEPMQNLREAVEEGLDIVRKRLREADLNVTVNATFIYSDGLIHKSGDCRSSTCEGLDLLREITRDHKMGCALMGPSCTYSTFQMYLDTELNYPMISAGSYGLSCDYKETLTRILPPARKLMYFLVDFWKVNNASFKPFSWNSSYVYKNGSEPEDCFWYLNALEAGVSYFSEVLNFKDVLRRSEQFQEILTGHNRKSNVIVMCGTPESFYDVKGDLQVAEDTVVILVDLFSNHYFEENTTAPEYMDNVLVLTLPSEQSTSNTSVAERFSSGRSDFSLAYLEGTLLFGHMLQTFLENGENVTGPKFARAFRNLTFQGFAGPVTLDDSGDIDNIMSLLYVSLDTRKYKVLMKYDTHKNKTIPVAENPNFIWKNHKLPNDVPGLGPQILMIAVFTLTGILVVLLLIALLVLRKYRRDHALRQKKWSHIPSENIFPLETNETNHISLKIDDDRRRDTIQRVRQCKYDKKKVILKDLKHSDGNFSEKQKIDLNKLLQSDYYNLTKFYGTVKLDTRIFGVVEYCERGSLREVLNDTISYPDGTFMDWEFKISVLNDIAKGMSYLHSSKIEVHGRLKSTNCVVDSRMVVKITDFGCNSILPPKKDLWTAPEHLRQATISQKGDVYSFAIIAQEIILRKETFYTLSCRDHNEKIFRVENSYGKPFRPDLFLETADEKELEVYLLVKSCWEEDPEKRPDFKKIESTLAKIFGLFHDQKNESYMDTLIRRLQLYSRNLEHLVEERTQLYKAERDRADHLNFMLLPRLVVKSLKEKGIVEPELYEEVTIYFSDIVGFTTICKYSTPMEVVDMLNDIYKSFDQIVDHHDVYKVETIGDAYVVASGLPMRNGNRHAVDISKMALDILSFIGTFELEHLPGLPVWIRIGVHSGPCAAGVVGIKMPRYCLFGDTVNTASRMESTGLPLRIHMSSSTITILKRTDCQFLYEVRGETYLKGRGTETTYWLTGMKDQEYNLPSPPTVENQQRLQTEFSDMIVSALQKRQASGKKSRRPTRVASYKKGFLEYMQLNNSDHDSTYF
Source text: (§1) FIG. 4 depicts ELISA binding assays to test antibody cross-reactivity of GCC orthologs.

rat GCC = biological target: T2, rat GCC (Rattus norvegicus, UniProt P23897); experiment: Cross-reactivity with GCC orthologs (ELISA); format: binding
T2 sequence (P23897 23-1072): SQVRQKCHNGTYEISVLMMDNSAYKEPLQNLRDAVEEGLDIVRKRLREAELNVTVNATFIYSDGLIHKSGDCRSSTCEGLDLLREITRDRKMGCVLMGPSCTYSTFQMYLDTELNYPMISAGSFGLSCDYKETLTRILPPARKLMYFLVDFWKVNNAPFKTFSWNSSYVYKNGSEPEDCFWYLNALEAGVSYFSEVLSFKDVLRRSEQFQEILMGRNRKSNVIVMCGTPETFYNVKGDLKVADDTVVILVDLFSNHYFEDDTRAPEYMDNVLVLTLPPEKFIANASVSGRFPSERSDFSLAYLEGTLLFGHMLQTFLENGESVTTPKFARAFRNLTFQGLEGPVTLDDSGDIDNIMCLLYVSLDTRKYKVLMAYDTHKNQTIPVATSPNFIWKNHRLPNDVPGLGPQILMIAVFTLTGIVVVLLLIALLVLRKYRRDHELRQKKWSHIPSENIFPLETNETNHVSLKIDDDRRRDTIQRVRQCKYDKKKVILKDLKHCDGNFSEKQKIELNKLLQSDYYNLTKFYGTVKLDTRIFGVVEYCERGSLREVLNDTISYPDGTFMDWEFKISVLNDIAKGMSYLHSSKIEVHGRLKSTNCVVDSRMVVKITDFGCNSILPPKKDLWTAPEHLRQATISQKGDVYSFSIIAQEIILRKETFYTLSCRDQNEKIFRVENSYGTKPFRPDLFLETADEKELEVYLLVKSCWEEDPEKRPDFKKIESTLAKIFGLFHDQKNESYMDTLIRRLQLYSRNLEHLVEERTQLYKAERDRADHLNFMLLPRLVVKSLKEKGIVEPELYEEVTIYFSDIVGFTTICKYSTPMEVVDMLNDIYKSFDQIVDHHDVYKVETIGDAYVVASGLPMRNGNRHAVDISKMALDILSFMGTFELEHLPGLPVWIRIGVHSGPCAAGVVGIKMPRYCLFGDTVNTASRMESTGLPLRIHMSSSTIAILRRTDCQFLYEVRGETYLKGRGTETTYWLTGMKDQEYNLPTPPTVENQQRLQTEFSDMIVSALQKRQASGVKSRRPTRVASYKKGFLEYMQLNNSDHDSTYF
Source text: as §1

## 5F9: Human anti-GCC mAb (IgG2, kappa) of hybridoma 5F9, ATCC PTA-8132; VH SEQ ID NO:18, VL SEQ ID NO:20; also engineered as IgG1
Mouse GCC
  Binding to mouse GCC: does not bind
Rat GCC
  Binding to rat GCC: does not bind
